The values that follow come from publication PMC3308694 (The Journal of Cell Biology, 2012).

This data set deals with the molecule itself. The data set is described as follows: SEC. Background: SEC sorts molecules by how far they enter the pores of the column.

B1: CC^95–303 with the E191A + K192A mutation (domain or fragment, S. cerevisiae, UniProt Q00402 95-303, looked up)
chain: KDMNFTLELSENLLVECRKLQSSNEAKNEQIKSLKQIKESLSDKIEELTNQKKSFMKELDSTKDLNWDLESKLTNLSMECRQLKELKKKTEKSWNDAAESLKLLKTDLEILTLTKNGMENDLSSQKLHYDKEISELKERILDLNNENDRLLISVSDLTSEINSLQSNRTERIKIQKQLDDAKASISSLKRKVQKKYYQKQHTSDTTVTS
For B1, the binding result is given as “binds”.
